The experiment deals with T1, canine IL-4 receptor alpha on DH82 cells (canine).
T1 construct: Endogenous receptor of the canine DH82 cell line in the STAT-6 assay; also called canine IL-4Rα; IL-4R alpha
T1 chain: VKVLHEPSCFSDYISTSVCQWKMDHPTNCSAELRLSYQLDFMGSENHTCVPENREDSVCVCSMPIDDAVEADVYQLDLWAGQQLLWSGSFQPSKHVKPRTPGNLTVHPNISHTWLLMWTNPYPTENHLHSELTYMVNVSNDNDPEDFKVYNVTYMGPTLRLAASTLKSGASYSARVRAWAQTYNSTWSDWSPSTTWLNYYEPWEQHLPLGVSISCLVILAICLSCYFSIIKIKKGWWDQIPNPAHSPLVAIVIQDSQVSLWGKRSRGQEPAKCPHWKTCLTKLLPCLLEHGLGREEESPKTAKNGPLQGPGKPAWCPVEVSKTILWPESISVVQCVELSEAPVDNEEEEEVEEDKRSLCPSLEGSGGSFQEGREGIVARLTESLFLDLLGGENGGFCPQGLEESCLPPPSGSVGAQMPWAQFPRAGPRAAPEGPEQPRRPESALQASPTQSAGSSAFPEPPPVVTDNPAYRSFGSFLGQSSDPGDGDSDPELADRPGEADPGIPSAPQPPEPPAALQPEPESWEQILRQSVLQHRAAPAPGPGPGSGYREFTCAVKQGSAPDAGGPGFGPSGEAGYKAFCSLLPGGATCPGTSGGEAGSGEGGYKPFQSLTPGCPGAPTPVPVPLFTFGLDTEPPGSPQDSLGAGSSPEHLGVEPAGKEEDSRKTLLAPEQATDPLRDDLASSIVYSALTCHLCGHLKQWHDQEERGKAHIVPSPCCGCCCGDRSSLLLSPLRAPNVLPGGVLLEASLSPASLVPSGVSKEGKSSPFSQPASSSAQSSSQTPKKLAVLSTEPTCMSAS
The experiment in a line: inferred by the filing from inhibition of STAT-6 phosphorylation in DH82 cells. The protocol:
Methods [0121] 1. Two tissue culture plates were seeded with 8×10⁴ DH82 cells per well (200 μL with the density of 4×10⁵ cells/mL) and incubated at 37° C. overnight. [0122] 2. The test antibodies were pre-diluted to 500 μg/mL and then 3-fold serially diluted in DH82 Cell Growth Media. The media was removed from the cell culture plates and 50 μL/well of the serially diluted test sample were transferred to each plate. [0123] 3. Canine IL-4 was diluted to 5 ng/mL in DH82 Cell Growth Media and 50 μL was added to each well of one plate. Canine IL-13 was diluted to 10 ng/mL in DH82 Cell Growth Media and 50 μL was added to each well of the second plate. The plates were incubated for 15 min at 37° C. [0124] 4. The media was removed from the plates and 100 μL per well of freshly prepared 1× lysis buffer from the AlphaLISA p-STAT-6 Assay Kit was added to the plate. The plate was agitated on a plate shaker with 350 rpm for 10 minutes at room temperature. [0125] 5. The Acceptor Mix was prepared from the AlphaLISA p-STAT6 Assay Kit and […] was added to 30 μL of the cell lysate in 96-well 1/2 Area Plates. The plates were sealed, agitated for 2 minutes at 350 rpm, and then incubated for 2 hours at room temperature. [0126] 6. […] The plates were read using the AlphaScreen settings on the Perkin Elmer EnVison.

B1: c146E2VL3-cCLk-s/c146E2VH3-cIgG-Bm (antibody, V domains shown)
VH: EVQLVQSGAEVKKPGASVKVSCKASGYTFARYWMHWMKQAPGAGLDWIGMIHPDSGNINYNERFKTKATLTVDKSTSTAYMELSSLRAGDIAVYYCARQLRNAMDYWGQGTLVTVSS
VL: DIVLTQTPLSLSVSPGETASIYCRASESVDSYGNSFLNWYQQKPGQPPKLLIYRASNLASEIPDRFSGSGSRTEFTLKISRVEADDAGVYYCQQNYENPRTFGQGTKLEIKR
notes: Caninized murine anti-canine IL-4R alpha antibody, canine IgG-Bm heavy chain and canine kappa light chain; also called c146E2-H3L3
As to B1, the binding result was “binds”.

For the origin of these results see patent US20230053131A1 (INTERVET, published 2023).
